In PMC7271195, “CX3CL1 homo-oligomerization drives cell-to-cell adherence” (Scientific Reports, 2020):
Values joined by “and” are separate entries in the source; they are usually repeats but may differ in a detail not shown here. Equal entries are not always repeated. Ends that are not written are not given here.

Columns and labels:
[1] = biological target: TM24 peptide expressed as a EYFP fusion in COS cells; assay: FRAP; TM24 as EYFP fusion in live COS-7 cells, 37 °C; diffusion rate compared with membrane proteins of known number of TM domains
[2] = biological target: the molecule itself; assay: single-molecule photobleaching TIRF; L_(CX3CL1) membrane preparation diluted in excess DOPC, spread on a coverslip; stepwise bleaching of EYFP, 126 particles
[3] = biological target: the molecule itself; assay: native gel or EMSA; L_(CX3CL1) cell lysate (40 µg total protein) solubilised in 1% DDM, NativePAGE Novex Bis Tris 3-12% gel, Western blot with anti-CX3CL1
[4] = biological target: the molecule itself; assay: native gel or EMSA; plasma membranes of L_(CX3CL1) solubilised with CALX173ACE, CX3CL1 immuno-purified on anti-CX3CL1 beads, eluted by pH shock; clear native PAGE 4-15%, 4 °C, Western blot
[5] = biological target: the molecule itself; assay: SDS-PAGE without cross-linker; 0.4 mg/ml peptide in DPC micelles, no BS3; SDS-PAGE, silver stain
[6] = biological target: the molecule itself; assay: FRAP; FITC peptides in giant unilamellar vesicles of EggPC, 1000 lipids per peptide, PBS; lateral diffusion rate

Q: With “TM24 peptide expressed as a EYFP fusion in COS cells (domain or fragment)” as the molecule, how does the stoichiometry N [1] read?
A: 7

B1: CX3CL1-EYFP fusion protein (L929 cells stably expressing CX3CL1-YFP) (natural protein, UniProt P78423 25-397, looked up)
chain: QHHGVTKCNITCSKMTSKIPVALLIHYQQNQASCGKRAIILETRQHRLFCADPKEQWVKDAMQHLDRQAAALTRNGGTFEKQIGEVKPRTTPAAGGMDESVVLEPEATGESSSLEPTPSSQEAQRALGTSPELPTGVTGSSGTRLPPTPKAQDGGPVGTELFRVPPVSTAATWQSSAPHQPGPSLWAEAKTSEAPSTQDPSTQASTASSPAPEENAPSEGQRVWGQGQSPRPENSLEREEMGPVPAHTDAFQDWGPGSMAHVSVVPVSSEGTPSREPVASGSWTPKAEEPIHATMDPQRLGVLITPVPDAQAATRRQAVGLLAFLGLLFCLGVAMFTYQSLQGCPRKMAGEMAEGLRYIPRSCGSNSYVLVPV
Q: For B1, which “stoichiometry N” value [2] is on record?
A: 4.3 and 3 to 7 (2×)

Q: And the “stoichiometry N” value [3]?
A: ~3

Q: What about the “stoichiometry N” value [4] of the same molecule?
A: 5

B2: TM24 peptide (transmembrane domain of CX3CL1 with two lysines at each end) (peptide)
peptide: KKVGLLAFLGLLFCLGVAMFTYKK
notes: two lysines added to ensure solubility; the 20 residues of the TM domain of CX3CL1; also called TM-CX3CL1 peptide; CX3CL1 transmembrane peptide; source: synthetic peptide
Q: For B2, which “stoichiometry N” value [5] is on record?
A: 2

B3: TM24-FITC (peptide)
peptide: KKVGLLAFLGLLFCLGVAMFTYKK
modifications: also: FITC, position not given here
notes: two lysines added to ensure solubility; the 20 residues of the TM domain of CX3CL1; also called TM24 conjugated with fluorescein; source: synthetic peptide
Q: Does B3 bind [6]?
A: binds
